Assay results published in the supplement of paper PMC10567573.

B1: VTI1B (parent)
chain: ANETLAEMEEELRYAPLSFRNPMM

Variants of: B1
Assay: protein stability index of a GFP-peptide fusion (GPS, HEK-293T) (PSI 1-6); higher = more stable
Conditions: c terminus: a fixed tail appended
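Further: lentivirally expressed fusions sorted by FACS into six bins by GFP to DsRed ratio, PSI derived from sequencing read proportions per bin multiplied by bin number.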

Compared with ANQTLAEMEEELRYAPLSFRNPMM [E3Q], ANYTLAEMEEELRYAPLSFRNPMM [E3Y] is lower in protein stability index: 2.53 for the first, 1.94 for the second.

Going from ANCTLAEMEEELRYAPLSFRNPMM [E3C] to ANSTLAEMEEELRYAPLSFRNPMM [E3S], the protein stability index rises from 2.01 to 2.27.

Going from ANDTLAEMEEELRYAPLSFRNPMM [E3D] to ANGTLAEMEEELRYAPLSFRNPMM [E3G], the protein stability index falls from 2.97 to 2.51.

First: ANITLAEMEEELRYAPLSFRNPMM [E3I]
Second: ANKTLAEMEEELRYAPLSFRNPMM [E3K]
The protein stability index of the first is lower: 2.1 for the first, 2.85 for the second.

Compared with ANMTLAEMEEELRYAPLSFRNPMM [E3M], ANWTLAEMEEELRYAPLSFRNPMM [E3W] is higher in protein stability index: 2.1 for the first, 2.29 for the second.

Going from ANFTLAEMEEELRYAPLSFRNPMM [E3F] to ANVTLAEMEEELRYAPLSFRNPMM [E3V], the protein stability index rises from 1.96 to 2.13.

Going from ANLTLAEMEEELRYAPLSFRNPMM [E3L] to ANPTLAEMEEELRYAPLSFRNPMM [E3P], the protein stability index rises from 1.38 to 2.26.

ANNTLAEMEEELRYAPLSFRNPMM [E3N] and ANHTLAEMEEELRYAPLSFRNPMM [E3H] are the same in protein stability index: 2.43 for the first, 2.43 for the second.

Compared with ANTTLAEMEEELRYAPLSFRNPMM [E3T], ANATLAEMEEELRYAPLSFRNPMM [E3A] is higher in protein stability index: 2.01 for the first, 2.18 for the second.

Going from ANETLAEEEEELRYAPLSFRNPMM [M8E] to ANETLAEHEEELRYAPLSFRNPMM [M8H], the protein stability index rises from 3.1 to 3.39.

Compared with ANETLAESEEELRYAPLSFRNPMM [M8S], ANETLAEWEEELRYAPLSFRNPMM [M8W] is lower in protein stability index: 3.14 for the first, 1.51 for the second.

First: ANETLAEDEEELRYAPLSFRNPMM [M8D]
Second: ANETLAEYEEELRYAPLSFRNPMM [M8Y]
The protein stability index of the first is higher: 3.37 for the first, 2.73 for the second.

Going from ANETLAEQEEELRYAPLSFRNPMM [M8Q] to ANETLAEVEEELRYAPLSFRNPMM [M8V], the protein stability index falls from 2.62 to 2.16.

Compared with ANETLAENEEELRYAPLSFRNPMM [M8N], ANETLAEAEEELRYAPLSFRNPMM [M8A] is higher in protein stability index: 2.72 for the first, 3.28 for the second.

First: ANETLAEFEEELRYAPLSFRNPMM [M8F]
Second: ANETLAELEEELRYAPLSFRNPMM [M8L]
The protein stability index of the first is higher: 2.51 for the first, 2.3 for the second.

Compared with ANETLAEREEELRYAPLSFRNPMM [M8R], ANETLAEIEEELRYAPLSFRNPMM [M8I] is higher in protein stability index: 2.46 for the first, 2.8 for the second.

First: ANETLAEPEEELRYAPLSFRNPMM [M8P]
Second: ANETLAEKEEELRYAPLSFRNPMM [M8K]
The protein stability index of the first is higher: 3.11 for the first, 2.4 for the second.

Going from ANETLAECEEELRYAPLSFRNPMM [M8C] to ANETLAEGEEELRYAPLSFRNPMM [M8G], the protein stability index rises from 2.94 to 3.19.

Going from ANETLAETEEELRYAPLSFRNPMM [M8T] to ANETLAEMEEQLRYAPLSFRNPMM [E11Q], the protein stability index falls from 3.11 to 1.95.

Going from ANETLAEMEEMLRYAPLSFRNPMM [E11M] to ANETLAEMEEFLRYAPLSFRNPMM [E11F], the protein stability index falls from 2.45 to 1.66.

Going from ANETLAEMEELLRYAPLSFRNPMM [E11L] to ANETLAEMEEYLRYAPLSFRNPMM [E11Y], the protein stability index rises from 2.29 to 2.51.

First: ANETLAEMEESLRYAPLSFRNPMM [E11S]
Second: ANETLAEMEEDLRYAPLSFRNPMM [E11D]
The protein stability index of the first is higher: 3.02 for the first, 2.13 for the second.

First: ANETLAEMEEPLRYAPLSFRNPMM [E11P]
Second: ANETLAEMEEHLRYAPLSFRNPMM [E11H]
The protein stability index of the first is lower: 2.17 for the first, 2.89 for the second.

First: ANETLAEMEENLRYAPLSFRNPMM [E11N]
Second: ANETLAEMEEWLRYAPLSFRNPMM [E11W]
The protein stability index of the first is higher: 2.81 for the first, 1.55 for the second.

Going from ANETLAEMEEALRYAPLSFRNPMM [E11A] to ANETLAEMEEKLRYAPLSFRNPMM [E11K], the protein stability index rises from 2 to 3.41.

First: ANETLAEMEETLRYAPLSFRNPMM [E11T]
Second: ANETLAEMEECLRYAPLSFRNPMM [E11C]
The protein stability index of the first is higher: 3.25 for the first, 2.22 for the second.

First: ANETLAEMEEVLRYAPLSFRNPMM [E11V]
Second: ANETLAEMEERLRYAPLSFRNPMM [E11R]
The protein stability index of the first is lower: 1.65 for the first, 2.31 for the second.

Going from ANETLAEMEEILRYAPLSFRNPMM [E11I] to AYETLAEMEEELRYAPLSFRNPMM [N2Y], the protein stability index falls from 2.69 to 2.05.

Going from AAETLAEMEEELRYAPLSFRNPMM [N2A] to AQETLAEMEEELRYAPLSFRNPMM [N2Q], the protein stability index falls from 2.91 to 2.27.

Going from ASETLAEMEEELRYAPLSFRNPMM [N2S] to ARETLAEMEEELRYAPLSFRNPMM [N2R], the protein stability index falls from 1.94 to 1.26.

Going from AWETLAEMEEELRYAPLSFRNPMM [N2W] to ALETLAEMEEELRYAPLSFRNPMM [N2L], the protein stability index rises from 1.06 to 2.58.

Going from ACETLAEMEEELRYAPLSFRNPMM [N2C] to AIETLAEMEEELRYAPLSFRNPMM [N2I], the protein stability index rises from 2.13 to 2.53.

Compared with AHETLAEMEEELRYAPLSFRNPMM [N2H], AGETLAEMEEELRYAPLSFRNPMM [N2G] is lower in protein stability index: 2.9 for the first, 2.01 for the second.

Compared with ATETLAEMEEELRYAPLSFRNPMM [N2T], APETLAEMEEELRYAPLSFRNPMM [N2P] is higher in protein stability index: 2.19 for the first, 2.52 for the second.

First: ANETLAEMEWELRYAPLSFRNPMM [E10W]
Second: ANETLAEMERELRYAPLSFRNPMM [E10R]
The protein stability index of the first is higher: 1.96 for the first, 1.17 for the second.

Compared with ANETLAEMEQELRYAPLSFRNPMM [E10Q], ANETLAEMECELRYAPLSFRNPMM [E10C] is lower in protein stability index: 3.3 for the first, 2.16 for the second.

Going from ANETLAEMESELRYAPLSFRNPMM [E10S] to ANETLAEMEIELRYAPLSFRNPMM [E10I], the protein stability index falls from 2.56 to 2.05.

First: ANETLAEMELELRYAPLSFRNPMM [E10L]
Second: ANETLAEMENELRYAPLSFRNPMM [E10N]
The protein stability index of the first is lower: 2.05 for the first, 2.55 for the second.

First: ANETLAEMEGELRYAPLSFRNPMM [E10G]
Second: ANETLAEMEAELRYAPLSFRNPMM [E10A]
The protein stability index of the first is lower: 1.49 for the first, 2.04 for the second.

Going from ANETLAEMEHELRYAPLSFRNPMM [E10H] to ANETLAEMEMELRYAPLSFRNPMM [E10M], the protein stability index falls from 3.06 to 1.87.

First: ANETLAEMETELRYAPLSFRNPMM [E10T]
Second: ANETLAEMEVELRYAPLSFRNPMM [E10V]
The protein stability index of the first is higher: 3.02 for the first, 1.82 for the second.

ANETLAEMEKELRYAPLSFRNPMM [E10K] and ANETLAEMEPELRYAPLSFRNPMM [E10P] are the same in protein stability index: 2.73 for the first, 2.73 for the second.

First: ANETLAEMEFELRYAPLSFRNPMM [E10F]
Second: ANETLAEMEYELRYAPLSFRNPMM [E10Y]
The protein stability index of the first is higher: 2.75 for the first, 1.69 for the second.

Compared with ANETLAEMEDELRYAPLSFRNPMM [E10D], ANETLANMEEELRYAPLSFRNPMM [E7N] is higher in protein stability index: 1.62 for the first, 2.61 for the second.

Going from ANETLAYMEEELRYAPLSFRNPMM [E7Y] to ANETLAMMEEELRYAPLSFRNPMM [E7M], the protein stability index falls from 2.31 to 2.21.

Compared with ANETLAAMEEELRYAPLSFRNPMM [E7A], ANETLADMEEELRYAPLSFRNPMM [E7D] is lower in protein stability index: 2.85 for the first, 2.69 for the second.

Compared with ANETLAFMEEELRYAPLSFRNPMM [E7F], ANETLAKMEEELRYAPLSFRNPMM [E7K] is higher in protein stability index: 2.1 for the first, 2.52 for the second.
